Source: patent publication US6465220

Assays:
[1] = system: GalNAc4TAP24 glycopeptide
[2] = system: PSGL-1b peptide
[3] = system: EA2 peptide
[4] = system: Muc2 peptide
[5] = system: Muc1a′ peptide
[6] = system: Muc1b′ peptide
[7] = system: Muc7 peptide
[8] = system: TAP24 peptide
[9] = system: hCG-β peptide
[10] = system: PSGL-1a peptide

PSGL-1b peptide, sequence (chain, as listed by the source): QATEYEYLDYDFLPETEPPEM
soluble human GalNAc-T4 (pAcGP67-GalNAc-T4506Vsol), amino acid residues 32-578, sequence (chain, as listed by the source): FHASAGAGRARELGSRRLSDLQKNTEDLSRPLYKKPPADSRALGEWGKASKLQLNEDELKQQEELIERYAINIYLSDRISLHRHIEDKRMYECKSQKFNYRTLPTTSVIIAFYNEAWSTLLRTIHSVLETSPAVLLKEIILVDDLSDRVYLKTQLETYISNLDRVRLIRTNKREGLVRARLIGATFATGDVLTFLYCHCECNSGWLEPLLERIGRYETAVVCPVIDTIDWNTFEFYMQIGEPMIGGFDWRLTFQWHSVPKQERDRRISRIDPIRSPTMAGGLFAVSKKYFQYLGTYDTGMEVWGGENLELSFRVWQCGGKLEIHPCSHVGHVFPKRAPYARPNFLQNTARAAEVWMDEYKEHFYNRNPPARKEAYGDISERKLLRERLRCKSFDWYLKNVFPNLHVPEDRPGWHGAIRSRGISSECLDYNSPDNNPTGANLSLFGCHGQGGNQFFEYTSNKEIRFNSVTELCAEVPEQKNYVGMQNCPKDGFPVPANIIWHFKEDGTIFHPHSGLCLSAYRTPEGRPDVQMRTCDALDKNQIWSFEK
soluble recombinant human GalNAc-T2 (pAcGP67-GalNAc-T2-sol), sequence (chain, as listed by the source): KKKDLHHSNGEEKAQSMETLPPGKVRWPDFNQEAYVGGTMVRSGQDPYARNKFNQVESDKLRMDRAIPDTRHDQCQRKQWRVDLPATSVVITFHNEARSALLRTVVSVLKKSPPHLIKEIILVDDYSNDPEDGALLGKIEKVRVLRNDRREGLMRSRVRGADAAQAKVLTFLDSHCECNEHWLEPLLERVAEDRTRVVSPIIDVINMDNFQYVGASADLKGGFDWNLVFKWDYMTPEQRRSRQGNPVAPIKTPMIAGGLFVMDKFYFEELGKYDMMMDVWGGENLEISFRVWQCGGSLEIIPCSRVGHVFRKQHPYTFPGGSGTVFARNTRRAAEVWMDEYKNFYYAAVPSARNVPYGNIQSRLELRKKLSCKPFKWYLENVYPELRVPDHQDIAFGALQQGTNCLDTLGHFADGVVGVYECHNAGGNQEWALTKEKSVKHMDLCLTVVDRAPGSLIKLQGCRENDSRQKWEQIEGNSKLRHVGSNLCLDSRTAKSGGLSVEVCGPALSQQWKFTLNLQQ
hCG-β peptide, sequence (chain, as listed by the source): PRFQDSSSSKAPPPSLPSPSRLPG
full coding human GalNAc-T4 (pVL-GalNAc-T4506Vfull) expressed in Sf9 cells, sequence (chain, as listed by the source): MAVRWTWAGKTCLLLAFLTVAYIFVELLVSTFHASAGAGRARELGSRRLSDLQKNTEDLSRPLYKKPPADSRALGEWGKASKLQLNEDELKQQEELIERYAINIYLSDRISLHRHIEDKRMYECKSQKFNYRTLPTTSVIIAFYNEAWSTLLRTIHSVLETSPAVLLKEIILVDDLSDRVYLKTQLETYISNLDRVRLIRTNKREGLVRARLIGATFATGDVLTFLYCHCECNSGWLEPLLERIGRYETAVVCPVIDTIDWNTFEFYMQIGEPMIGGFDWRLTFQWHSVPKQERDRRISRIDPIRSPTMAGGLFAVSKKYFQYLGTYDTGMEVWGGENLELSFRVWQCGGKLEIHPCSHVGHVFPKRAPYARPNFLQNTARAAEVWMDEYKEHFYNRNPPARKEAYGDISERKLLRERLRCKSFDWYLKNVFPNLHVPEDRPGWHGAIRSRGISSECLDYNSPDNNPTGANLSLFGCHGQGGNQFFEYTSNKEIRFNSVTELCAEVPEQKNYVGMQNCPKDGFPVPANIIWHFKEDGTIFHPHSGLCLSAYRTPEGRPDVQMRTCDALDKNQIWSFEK

full coding human GalNAc-T4 (pVL-GalNAc-T4506Vfull) expressed in Sf9 cells
GalNAc incorporation by MALDI-TOF of HPLC-purified product [1]: no incorporation was detected

soluble human GalNAc-T4 (pAcGP67-GalNAc-T4506Vsol), amino acid residues 32-578
GalNAc-transferase activity at 0.06 mM peptide (milliunits/mg) [2]: 1.2 | GalNAc-transferase activity at 0.25 mM peptide (milliunits/mg) [2]: 1.4 | Km for acceptor substrate [2]: 20 µM | Vmax [2]: 0.003 nmol/min/µg | GalNAc-transferase activity at 0.06 mM peptide (milliunits/mg) [1]: 4.4 | GalNAc-transferase activity at 0.25 mM peptide (milliunits/mg) [1]: 7.1 | Km for acceptor substrate [1]: 90 µM | Vmax [1]: 0.007 nmol/min/µg | GalNAc-transferase activity at 0.06 mM peptide (milliunits/mg) [3]: 15 | GalNAc-transferase activity at 0.25 mM peptide (milliunits/mg) [3]: 42 | Km for acceptor substrate [3]: 2190 µM | Vmax [3]: 0.44 nmol/min/µg | GalNAc-transferase activity at 0.06 mM peptide (milliunits/mg) [4]: 9 | GalNAc-transferase activity at 0.25 mM peptide (milliunits/mg) [4]: 29 | GalNAc-transferase activity at 0.25 mM peptide (milliunits/mg) [5]: 2 | GalNAc-transferase activity at 1 mM peptide (milliunits/mg) [5]: 6.7 | GalNAc-transferase activity at 0.25 mM peptide (milliunits/mg) [6]: 0.7 | GalNAc-transferase activity at 1 mM peptide (milliunits/mg) [6]: 0.9 | GalNAc-transferase activity at 0.06 mM peptide (milliunits/mg) [7]: 21 | GalNAc-transferase activity at 0.25 mM peptide (milliunits/mg) [7]: 53 | Km for acceptor substrate [7]: 480 µM | Vmax [7]: 0.25 nmol/min/µg | GalNAc-transferase activity at 0.06 mM peptide (milliunits/mg) [8]: 0.8 | GalNAc-transferase activity at 0.25 mM peptide (milliunits/mg) [8]: 2.7

soluble recombinant human GalNAc-T2 (pAcGP67-GalNAc-T2-sol)
GalNAc-transferase activity [2]: exhibited poor activities with both peptide designs | GalNAc-transferase activity at 0.06 mM peptide (milliunits/mg) [2]: 0.3 | GalNAc-transferase activity at 0.25 mM peptide (milliunits/mg) [2]: 0.3 | Km for acceptor substrate [2]: > 2000 µM | GalNAc-transferase activity at 0.06 mM peptide (milliunits/mg) [9]: 22 | GalNAc-transferase activity at 0.25 mM peptide (milliunits/mg) [9]: 74 | GalNAc-transferase activity [10]: exhibited poor activities with both peptide designs | GalNAc-transferase activity at 0.06 mM peptide (milliunits/mg) [10]: 0 | GalNAc-transferase activity at 0.25 mM peptide (milliunits/mg) [10]: 0 | GalNAc-transferase activity at 0.06 mM peptide (milliunits/mg) [1]: 0 | GalNAc-transferase activity at 0.25 mM peptide (milliunits/mg) [1]: 0 | GalNAc-transferase activity at 0.06 mM peptide (milliunits/mg) [3]: 152 | GalNAc-transferase activity at 0.25 mM peptide (milliunits/mg) [3]: 376 | Km for acceptor substrate [3]: 850 µM | Vmax [3]: 1.8 nmol/min/µg | GalNAc-transferase activity at 0.06 mM peptide (milliunits/mg) [4]: 169 | GalNAc-transferase activity at 0.25 mM peptide (milliunits/mg) [4]: 128 | GalNAc-transferase activity at 0.25 mM peptide (milliunits/mg) [5]: 28 | GalNAc-transferase activity at 1 mM peptide (milliunits/mg) [5]: 83 | GalNAc-transferase activity at 0.25 mM peptide (milliunits/mg) [6]: 198 | GalNAc-transferase activity at 1 mM peptide (milliunits/mg) [6]: 582 | GalNAc-transferase activity at 0.06 mM peptide (milliunits/mg) [7]: 737 | GalNAc-transferase activity at 0.25 mM peptide (milliunits/mg) [7]: 396 | Km for acceptor substrate [7]: 15 µM | Vmax [7]: 0.64 nmol/min/µg | GalNAc-transferase activity at 0.06 mM peptide (milliunits/mg) [8]: 73 | GalNAc-transferase activity at 0.25 mM peptide (milliunits/mg) [8]: 222
